In ChEMBL document CHEMBL2074000, “Transport of ethinylestradiol glucuronide and ethinylestradiol sulfate by the multidrug resistance proteins MRP1, MRP2, and MRP3” (J Pharmacol Exp Ther, 2004) one finds Km data, which are given here for two proteins.

Substrate in series [1]: C#C[C@]1(O)CC[C@H]2[C@@H]3CCc4cc(O[C@@H]5O[C@H](C(=O)O)[C@@H](O)[C@H](O)[C@H]5O)ccc4[C@H]3CC[C@@]21C
Put plainly: TP_TRANSPORTER: uptake in membrane vesicle from MRP3-expressing Sf9 cells. Format: functional, cell membranes.

Substrate in series [2]: [H][C@@]12CC[C@@](O)(C#C)[C@@]1(C)CC[C@]1([H])c3ccc(O[C@@H]4O[C@H](C(=O)O)[C@@H](O)[C@H](O)[C@H]4O)cc3CC[C@@]21[H]
Put plainly: TP_TRANSPORTER: uptake in membrane vesicles from MRP2-expressing Sf9 cells. Format: functional, cell membranes, Membrane vesicle.

B1: Multidrug resistance associated protein (Homo sapiens), Q96QA9 (protein)
chain: MDALCGSGELGSKFWDSNLSVHTENPDLTPCFQNSLLAWVPCIYLWVALPCYLLYLRHHCRGYIILSHLSKLKMVLGVLLWCVSWADLFYSFHGLVHGRAPAPVFFVTPLVVGVTMLLATLLIQYERLQGVQSSGVLIIFWFLCVVCAIVPFRSKILLAKAEGEISDPFRFTTFYIHFALVLSALILACFREKPPFFSAKNVDPNPYPETSAGFLSRLFFWWFTKMAIYGYRHPLEEKDLWSLKEEDRSQMVVQQLLEAWRKQEKQTARHKASAAPGKNASGEDEVLLGARPRPRKPSFLKALLATFGSSFLISACFKLIQDLLSFINPQLLSILIRFISNPMAPSWWGFLVAGLMFLCSMMQSLILQHYYHYIFVTGVKFRTGIMGVIYRKALVITNSVKRASTVGEIVNLMSVDAQRFMDLAPFLNLLWSAPLQIILAIYFLWQNLGPSVLAGVAFMVLLIPLNGAVAVKMRAFQVKQMKLKDSRIKLMSEILNGIKVLKLYAWEPSFLKQVEGIRQGELQLLRTAAYLHTTTTFTWMCSPFLVTLITLWVYVYVDPNNVLDAEKAFVSVSLFNILRLPLNMLPQLISNLTQASVSLKRIQQFLSQEELDPQSVERKTISPGYAITIHSGTFTWAQDLPPTLHSLDIQVPKGALVAVVGPVGCGKSSLVSALLGEMEKLEGKVHMKGSVAYVPQQAWIQNCTLQENVLFGKALNPKRYQQTLEACALLADLEMLPGGDQTEIGEKGINLSGGQRQRVSLARAVYSDADIFLLDDPLSAVDSHVAKHIFDHVIGPEGVLAGKTRVLVTHGISFLPQTDFIIVLADGQVSEMGPYPALLQRNGSFANFLCNYAPDEDQGHLEDSWTALEGAEDKEALLIEDTLSNHTDLTDNDPVTYVVQKQFMRQLSALSSDGEGQGRPVPRRHLGPSEKVQVTEAKADGALTQEEKAAIGTVELSVFWDYAKAVGLCTTLAICLLYVGQSAAAIGANVWLSAWTNDAMADSRQNNTSLRLGVYAALGILQGFLVMLAAMAMAAGGIQAARVLHQALLHNKIRSPQSFFDTTPSGRILNCFSKDIYVVDEVLAPVILMLLNSFFNAISTLVVIMASTPLFTVVILPLAVLYTLVQRFYAATSRQLKRLESVSRSPIYSHFSETVTGASVIRAYNRSRDFEIISDTKVDANQRSCYPYIISNRWLSIGVEFVGNCVVLFAALFAVIGRSSLNPGLVGLSVSYSLQVTFALNWMIRMMSDLESNIVAVERVKEYSKTETEAPWVVEGSRPPEGWPPRGEVEFRNYSVRYRPGLDLVLRDLSLHVHGGEKVGIVGRTGAGKSSMTLCLFRILEAAKGEIRIDGLNVADIGDPILFSGTLRMNLDPFGSYSEEDIWWALELSHLHTFVSSQPAGLDFQCSEGGENLSVGQRQLVCLARALLRKSRILVLDEATAAIDLETDNLIQATIRTQFDTCTVLTIAHRLNTIMDYTRVLVLDKGVVAEFDSPANLIAARGIFYGMARDAGLA
As usually defined, the Km is the substrate concentration at which the rate is half of its maximum. On to B1, for which, in series [1], the Km was 9.2 µM.

B2: ATP-binding cassette sub-family C member 2 (Homo sapiens) (protein)
chain: MLEKFCNSTFWNSSFLDSPEADLPLCFEQTVLVWIPLGYLWLLAPWQLLHVYKSRTKRSSTTKLYLAKQVFVGFLLILAAIELALVLTEDSGQATVPAVRYTNPSLYLGTWLLVLLIQYSRQWCVQKNSWFLSLFWILSILCGTFQFQTLIRTLLQGDNSNLAYSCLFFISYGFQILILIFSAFSENNESSNNPSSIASFLSSITYSWYDSIILKGYKRPLTLEDVWEVDEEMKTKTLVSKFETHMKRELQKARRALQRRQEKSSQQNSGARLPGLNKNQSQSQDALVLEDVEKKKKKSGTKKDVPKSWLMKALFKTFYMVLLKSFLLKLVNDIFTFVSPQLLKLLISFASDRDTYLWIGYLCAILLFTAALIQSFCLQCYFQLCFKLGVKVRTAIMASVYKKALTLSNLARKEYTVGETVNLMSVDAQKLMDVTNFMHMLWSSVLQIVLSIFFLWRELGPSVLAGVGVMVLVIPINAILSTKSKTIQVKNMKNKDKRLKIMNEILSGIKILKYFAWEPSFRDQVQNLRKKELKNLLAFSQLQCVVIFVFQLTPVLVSVVTFSVYVLVDSNNILDAQKAFTSITLFNILRFPLSMLPMMISSMLQASVSTERLEKYLGGDDLDTSAIRHDCNFDKAMQFSEASFTWEHDSEATVRDVNLDIMAGQLVAVIGPVGSGKSSLISAMLGEMENVHGHITIKGTTAYVPQQSWIQNGTIKDNILFGTEFNEKRYQQVLEACALLPDLEMLPGGDLAEIGEKGINLSGGQKQRISLARATYQNLDIYLLDDPLSAVDAHVGKHIFNKVLGPNGLLKGKTRLLVTHSMHFLPQVDEIVVLGNGTIVEKGSYSALLAKKGEFAKNLKTFLRHTGPEEEATVHDGSEEEDDDYGLISSVEEIPEDAASITMRRENSFRRTLSRSSRSNGRHLKSLRNSLKTRNVNSLKEDEELVKGQKLIKKEFIETGKVKFSIYLEYLQAIGLFSIFFIILAFVMNSVAFIGSNLWLSAWTSDSKIFNSTDYPASQRDMRVGVYGALGLAQGIFVFIAHFWSAFGFVHASNILHKQLLNNILRAPMRFFDTTPTGRIVNRFAGDISTVDDTLPQSLRSWITCFLGIISTLVMICMATPVFTIIVIPLGIIYVSVQMFYVSTSRQLRRLDSVTRSPIYSHFSETVSGLPVIRAFEHQQRFLKHNEVRIDTNQKCVFSWITSNRWLAIRLELVGNLTVFFSALMMVIYRDTLSGDTVGFVLSNALNITQTLNWLVRMTSEIETNIVAVERITEYTKVENEAPWVTDKRPPPDWPSKGKIQFNNYQVRYRPELDLVLRGITCDIGSMEKIGVVGRTGAGKSSLTNCLFRILEAAGGQIIIDGVDIASIGLHDLREKLTIIPQDPILFSGSLRMNLDPFNNYSDEEIWKALELAHLKSFVASLQLGLSHEVTEAGGNLSIGQRQLLCLGRALLRKSKILVLDEATAAVDLETDNLIQTTIQNEFAHCTVITIAHRLHTIMDSDKVMVLDNGKIIECGSPEELLQIPGPFYFMAKEAGIENVNSTKF
On to B2, for which the Km in series [2] was 35.1 µM.
